Test results as given in the MegaScale stability set (Tsuboyama et al. 2023).

B1: 6NMW (parent)
chain: QGDIVVALYPYDGIHPDDLSFKKGEKMKVLEEHGEWWKAKSLLTKKEGFIPSNYVAKLN
B2: HEEH_KT_rd6_3632 (parent)
chain: DAEELIELVERALKEGREIILLGVRITSEEAGKWFIEWIRRFL

Variants of: B1
Test: folding stability dG (cDNA display proteolysis); higher = more stable
Conditions: PBS, room temperature

| Variant | folding stability dG [kcal/mol] |
| --- | --- |
| D3A | 4.25 |
| D3V | 4.37 |
| D3L | 4.43 |
| D3H | 4.61 |
| D3C | 4.72 |
| D3R | 4.02 |
| D3Y | 4.84 |
| D3N | 3.87 |

Variants of: B2
Test: as above
Conditions: PBS, room temperature

| Variant | folding stability dG [kcal/mol] |
| --- | --- |
| DAEELIELVERALKEGREIILLGVRITSEEAGKWFIWWIRRFL | 3.88 |
| DAEELIELVERALKEGREIILLGVRITSEEAGKWFILWIRRFL | 3.93 |
| DAEELIELVERALKEGAEIILLGVRITSEEAGKWFIEWIRRFL | 3.6 |
| DAEELIELVERALKEGDEIILLGVRITSEEAGKWFIEWIRRFL | 2.99 |
| DAEELIELVERALKEGTEIILLGVRITSEEAGKWFIEWIRRFL | 3.45 |
| DAEELIELVERALKEGIEIILLGVRITSEEAGKWFIEWIRRFL | 3.85 |
| DAEELIELVERVLKEGREIILLGVRITSEEAGKWFIEWIRRFL | 3.55 |
| DAEELIELVERGLKEGREIILLGVRITSEEAGKWFIEWIRRFL | 3.21 |
| DAEELIELVERALKEGREIILLGVRITSEEAGKWFIEWIRTFL | 3.63 |
| DAEELIELVERALKEGREIILLGVRITSEEAGKWFIEWIRLFL | 3.81 |
| DAEELIELVERALKEGREIHLLGVRITSEEAGKWFIEWIRRFL | 3.17 |
| DAEELIELVERALKEGREINLLGVRITSEEAGKWFIEWIRRFL | 3.08 |
| DAEELIELVERALKEGREIFLLGVRITSEEAGKWFIEWIRRFL | 3.32 |
| DAEELIVLVERALKEGREIILLGVRITSEEAGKWFIEWIRRFL | 3.74 |
| DAEELIELVERALKEGREIIVLGVRITSEEAGKWFIEWIRRFL | 3.9 |
| DAEELAELVERALKEGREIILLGVRITSEEAGKWFIEWIRRFL | 3.38 |
| DAEELDELVERALKEGREIILLGVRITSEEAGKWFIEWIRRFL | 3.2 |
| DAEELIELVERALKEGREIILLGVRITSAEAGKWFIEWIRRFL | 3.89 |
| DAEELIELVERALKEGREIILLGVRITSDEAGKWFIEWIRRFL | 3.67 |
| DAEELIELVERALKEGREIILLGVRITSKEAGKWFIEWIRRFL | 3.82 |
| DAEELIELVERALKEGREIILLGVRITSEEAGKWFIEWIRRFY | 3.81 |

| Variant | folding stability dG [kcal/mol] |
| --- | --- |
| DAEELIELVERALKEGREIILLGVRITSEEAGKWFIEWIRRFN | 2.97 |
| DAETLIELVERALKEGREIILLGVRITSEEAGKWFIEWIRRFL | 4.03 |
| DAELLIELVERALKEGREIILLGVRITSEEAGKWFIEWIRRFL | 4.1 |
| DAEELIELVERALKEGREIILLGVRITSEEAGKWFIEWIDRFL | 2.87 |
| DAEELIELVERALKECREIILLGVRITSEEAGKWFIEWIRRFL | 4.34 |
| DAEELIELVERALKETREIILLGVRITSEEAGKWFIEWIRRFL | 3.36 |
| DAEELIELVERALLEGREIILLGVRITSEEAGKWFIEWIRRFL | 3.79 |
| DAEELIELVERALWEGREIILLGVRITSEEAGKWFIEWIRRFL | 3.5 |
| DAEELIELVERALKEGREIILLGVRITSETAGKWFIEWIRRFL | 3.57 |
| DAEELIELVERALKEGREIILLGVRITSEEAPKWFIEWIRRFL | 3.39 |
| DAEELIELVERALKEGREIILLGVRWTSEEAGKWFIEWIRRFL | 3.39 |
| DAEELIELVERALKEGREIILLGVRIPSEEAGKWFIEWIRRFL | 3.18 |
| DAEELIELVERALKEGREIILLGVRINSEEAGKWFIEWIRRFL | 3.99 |
| PAEELIELVERALKEGREIILLGVRITSEEAGKWFIEWIRRFL | 3.89 |
| EAEELIELVERALKEGREIILLGVRITSEEAGKWFIEWIRRFL | 3.63 |
| DAEEHIELVERALKEGREIILLGVRITSEEAGKWFIEWIRRFL | 2.83 |
| DAEELIELVQRALKEGREIILLGVRITSEEAGKWFIEWIRRFL | 3.83 |
| DAEELIERVERALKEGREIILLGVRITSEEAGKWFIEWIRRFL | 3.53 |
| DAEELIEEVERALKEGREIILLGVRITSEEAGKWFIEWIRRFL | 3.29 |
| DAEELIEIVERALKEGREIILLGVRITSEEAGKWFIEWIRRFL | 3.61 |
| DAEELIELVERALKEGREIILLGVRITSEEAGKWFIEWIRRML | 3.76 |

| Variant | folding stability dG [kcal/mol] |
| --- | --- |
| DAEELIELVERALKEGREIILLGVRITSEEAGKWFIEWIRRDL | 2.51 |
| DAEELIELVERALKEGRHIILLGVRITSEEAGKWFIEWIRRFL | 3.85 |
| DAEELIELVERALKEGREIILLCVRITSEEAGKWFIEWIRRFL | 3.82 |
| DAEELIELVERALKEGREIILLQVRITSEEAGKWFIEWIRRFL | 3.61 |
| DAEELIELVERALKEGREIILLFVRITSEEAGKWFIEWIRRFL | 3.93 |
| DAEELIELVESALKEGREIILLGVRITSEEAGKWFIEWIRRFL | 3.32 |
| DAEELIELVETALKEGREIILLGVRITSEEAGKWFIEWIRRFL | 3.62 |
| DAEELIELVERAQKEGREIILLGVRITSEEAGKWFIEWIRRFL | 2.95 |
| DAEELIELVERAHKEGREIILLGVRITSEEAGKWFIEWIRRFL | 2.99 |
| DAEELIELVERALKEGREIILLGVRITSEEAGCWFIEWIRRFL | 3.99 |
| DAEELIELVERALKEGREIILLGVRITSEEAGVWFIEWIRRFL | 3.55 |
| DAEELIELFERALKEGREIILLGVRITSEEAGKWFIEWIRRFL | 3.37 |
| DAEELIELMERALKEGREIILLGVRITSEEAGKWFIEWIRRFL | 3.45 |
| DAEELIELVERALKEGRECILLGVRITSEEAGKWFIEWIRRFL | 4.54 |
| DAEELIELVERALKEGRENILLGVRITSEEAGKWFIEWIRRFL | 2.86 |
| DAEELIELVERALKEGREIILLGVRITSEEAGKWFKEWIRRFL | 3.26 |
| DAEELIELVERALKEGREIILLGVRITSEEAGKWFVEWIRRFL | 3.36 |
| DAEELIELVERALKEGREIILLGVRITSEEAGKWFHEWIRRFL | 3.15 |
| DAEELIELVERALKEGREIILLGVRITSEERGKWFIEWIRRFL | 3.61 |
| DAEELIELVERALKSGREIILLGVRITSEEAGKWFIEWIRRFL | 3.73 |
| DAEELIELVERALKPGREIILLGVRITSEEAGKWFIEWIRRFL | 3.21 |

| Variant | folding stability dG [kcal/mol] |
| --- | --- |
| DAEELIELVERALKQGREIILLGVRITSEEAGKWFIEWIRRFL | 3.46 |
| DAEELIELVERALKEGREIILLGVRITSEEAGKGFIEWIRRFL | 3.11 |
| DAEELIELVERALKEGREIILLGVRITSEEAGKWFIEWRRRFL | 2.71 |
| DAEELIELVERALKEGREIILLGVRITSEEAGKWFIEWSRRFL | 2.66 |
| DADELIELVERALKEGREIILLGVRITSEEAGKWFIEWIRRFL | 3.85 |
| DANELIELVERALKEGREIILLGVRITSEEAGKWFIEWIRRFL | 3.87 |
| DAVELIELVERALKEGREIILLGVRITSEEAGKWFIEWIRRFL | 3.78 |
| DAEELIELVERALKEGREIILLGERITSEEAGKWFIEWIRRFL | 2.9 |
| DAEELIELVERALKEGREIILLGKRITSEEAGKWFIEWIRRFL | 3.05 |
| DAEELIELVERALKEGREIILLGFRITSEEAGKWFIEWIRRFL | 3.9 |
| DAEELIELVERALKEGREIILLGWRITSEEAGKWFIEWIRRFL | 3.76 |
| DAEELIELVERALKEGREIILLGVRITSEEAGKWFIEHIRRFL | 2.82 |
| DAEELIELVERALKEGREIILLGVRITSEEAGKWFIEKIRRFL | 2.86 |
| DAEELIELVERALKEGREIILLGVRITSEEAGKWVIEWIRRFL | 3.65 |
| DAEELIELVERALKEGREIILLGVRITSEEAGKWQIEWIRRFL | 2.85 |
| DAEELIELVERALKEGREIILLGVRITSEEAGKWKIEWIRRFL | 3.08 |
| DAEELIELVERALKEGREIILTGVRITSEEAGKWFIEWIRRFL | 3.08 |
| DAEELIELVERALKEGREIILYGVRITSEEAGKWFIEWIRRFL | 3.22 |
| DAEELIELVERALKEGREIILMGVRITSEEAGKWFIEWIRRFL | 3.53 |
| DQEELIELVERALKEGREIILLGVRITSEEAGKWFIEWIRRFL | 3.55 |
